One may read the EC50 (read off the curve) as the concentration that produces a half-maximal response.

The values below come from US20120021993A1 (AJOU UNIVERSITY INDUSTRY ACADEMIC COOPERATION FOUNDATION, published 2012).

Experiment [1] concerns the target T1, human-derived cell death receptor 5, extracellular domain (amino acid residues 1-130), 6xHis tag (human, UniProt O14763 56-210).
T1 construct: extracellular domain; Expressed in E. coli; biotinylated for sorting and flow cytometry; also called DR5; TRAIL-receptor 2
Nature of the experiment: ELISA, homo-dimer against monomer. On the technique in general: In an ELISA, binding on a coated surface is turned into a signal by an enzyme label.

For experiment [2], the target named is T1, human-derived cell death receptor 5, …. Nature of the experiment: ELISA, target coated on the plate.
Experiment [3] concerns the target T2, human-derived cell death receptor 4, extracellular domain (amino acid residues 1-216), 6xHis tag (human, UniProt O00220 24-239).
T2 construct: extracellular domain; Expressed in E. coli; biotinylated for sorting and flow cytometry; residues 1-216; also called DR4; TRAIL-receptor 1
In words: ELISA on coated DR4, KD415 alone, A405.

Experiment [4] addresses T3, DcR1 (UniProt O14798 26-221, limits assumed).
T3 sequence (looked up): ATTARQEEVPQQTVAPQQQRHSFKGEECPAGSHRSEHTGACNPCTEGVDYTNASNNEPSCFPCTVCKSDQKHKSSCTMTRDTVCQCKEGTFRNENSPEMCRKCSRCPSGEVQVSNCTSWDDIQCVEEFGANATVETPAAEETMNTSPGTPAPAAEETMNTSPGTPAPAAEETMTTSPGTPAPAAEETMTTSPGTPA
In words: ELISA, coated target, single binder concentration not given, A405. On the procedure: (§1) In order to measure the affinity and cross reactivity of the anti-DR4, -DR5 and -TNFα protein scaffold variants based on the Kringle domain structure to the target molecules, an enzyme-linked immunosorbent assay (ELISA) was performed. The target molecules DR4, DR5, TNFα and DcR1, DcR2 were attached to a 96 well EIA/RIA plate (COSTARCorning In., USA) by its reaction at 37° C. for 1 hour, and washed three times with 0.1% PBST (0.1% Tween20, pH 7.4, 137 mM NaCl, 10 mM Phosphate, 2.7 mM KCl, SIGMA-ALDRICH Co., USA) for 10 minutes. The target molecules were attached for 1 hour to a 96 well EIA/RIA plate in 1% PBSB (1% BSA, pH 7.4, 137 mM NaCl, 10 mM Phosphate, 2.7 mM KCl, SIGMA-ALDRICH Co., USA), and then washed three times with 0.1% PBST (0.1% Tween 20, pH 7.4, 137 mM NaCl, 10 mM Phosphate, 2.7 mM KCl, SIGMA-ALDRICH Co., USA) for 10 minutes. Then, the anti-DR4, -DR5 and -TNFα Kringle domain variants were bound, and washed three times with 0.1% PBST for 10 minutes. The anti-DR4, -DR5 and -TNFα Kringle domain variants were primarily bound to mouse-derived anti-c-myc 9e10 mAb (Ig Therapy, Korea), and secondarily bound to alkaline phosphatase (AP)-conjugated anti-mouse mAb (Sigma). Each of the Kringle domain variants was reacted with […] (pNPP, Sigma-aldrich Co., USA) and quantified at an absorbance of 405 nm.

Experiment [5] addresses T4, DcR2 (UniProt Q9UBN6 56-211, limits assumed).
T4 sequence (looked up): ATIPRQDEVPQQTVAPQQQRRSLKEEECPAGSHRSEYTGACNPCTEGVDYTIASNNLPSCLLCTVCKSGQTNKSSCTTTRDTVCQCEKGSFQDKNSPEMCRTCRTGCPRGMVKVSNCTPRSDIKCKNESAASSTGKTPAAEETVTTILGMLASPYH
Described as above. On the procedure: as §1

For experiment [6], the target named is T2, human-derived cell death receptor 4, …. Nature of the experiment: ELISA, coated target, A405 [lower panel]. Here is the method: as §1
The target is the same in experiment [7]. Nature of the experiment: competitive ELISA on coated DR4, biotinylated KD415 with TRAIL (amount not given), A405.
Experiment [8] has the same target. Nature of the experiment: ELISA, coated target, A405.
For experiment [9] the target is unchanged. In words: ELISA, coated target, A405. On the procedure: as §1
This is another data set of the same source.

For experiment [10], the target named is cell surface DR4 (human, UniProt O00220 24-468). Nature of the experiment: cell-based or functional assay.
The target in experiment [11] is T2, human-derived cell death receptor 4, …. Nature of the experiment: competitive ELISA on coated DR4, biotinylated KD413 with KD415 (amount not given), A405.
Experiment [12] has the same target. In words: ELISA, coated DR4, A405.
Experiment [13] shares this target. In words: ELISA, coated target, A405 [upper panel]. On the procedure:
as §1

Experiment [14] has the same target. Nature of the experiment: ELISA on coated DR4, KD413 alone, A405.
Experiment [15] has the same target. In words: competitive ELISA on coated DR4, biotinylated KD413 with TRAIL (amount not given), A405.
The target is the same in experiment [16]. In words: ELISA, coated target, A405. On the procedure: as §1, with “The anti-DR4, -DR5 and -TNFα Kringle domain variants were primarily bound to mouse-derived anti-c-myc 9e10 mAb (Ig Therapy, Korea), and secondarily bound to alkaline phosphatase (AP)-conjugated anti-mouse mAb (Sigma).” left out
In order to analyze the affinities of the Fc-fused anti-DR4, -DR5 and -TNFα Kringle domains to target molecules, the affinities of the Fc-fused anti-DR4, -DR5 and -TNFα Kringle domains to the target molecules were analyzed using ELISA, as described in Example 8.
The source holds these as a separate data set.

Experiment [17] deals with T3, DcR1. In words: yeast display, flow cytometry MFI [panel KD413].
In experiment [18] the target is T2, human-derived cell death receptor 4, …. In words: ELISA on coated DR4, KD413 alone, A405. The source holds these as a separate data set.
The target is the same in experiment [19]. Nature of the experiment: sandwich ELISA: DR4 coated, binder titrated, soluble DR5 detected, A405.
In experiment [20] the target is T1, human-derived cell death receptor 5, …. In words: ELISA, coated DR5, A405.
Experiment [21] has the same target. Nature of the experiment: ELISA, coated target, A405. Here is the method:
as §1

The target is the same in experiment [22]. In words: ELISA on coated DR5, KD548 alone, A405.
The target is the same in experiment [23]. In words: ELISA on coated DR5, KD548 alone, A405. The source holds these as a separate data set.
The target is the same in experiment [24]. Nature of the experiment: ELISA, coated target, A405 [lower panel]. Here is the method:
as §1

Experiment [25] shares this target. In words: competitive ELISA on coated DR5, biotinylated KD548 with KD506 (amount not given), A405.
Experiment [26] has the same target. In words: ELISA, coated target, A405. Here is the method: as §1
The source holds these as a separate data set.

Experiment [27] addresses cell surface DR5 (human, UniProt O14763 56-440). In words: cell-based or functional assay.
Experiment [28] addresses T2, human-derived cell death receptor 4, …. Nature of the experiment: yeast display, flow cytometry MFI [panel KD548].

B1: anti-DR5 KD548 homo-dimer (designed binder)
chain: CHQTQGPKYDGNKDKTHKGHKCQSWTKNRPHHHGNKIENEDENRFQKNYCRNPDNKHEPWCFTHGHRDKHELCHEPRCGGGGSGGGGSGGGGSGGGGSCHQTQGPKYDGNKDKTHKGHKCQSWTKNRPHHHGNKIENEDENRFQKNYCRNPDNKHEPWCFTHGHRDKHELCHEPRC
On to B1, for which the “fold increase of affinity against the monomer” value in experiment [1] was ~10 fold. In experiment [2], this molecule returned an affinity value of 53 nM.

B2: KD415 (designed binder)
chain: CTRSKGDEYDGHKHKTNRGLRCQHWPGTKPHFHGDKIKDRHGFRLKKNYCRNPDPQDQPWCFTNRHQHKNELCNQPRC
notes: Soluble monomer from Pichia pastoris; also called anti-DR4 Kringle domain variant KD415; not shown: C-terminal myc tag-6xHis tag of pPICZaA
On to B2, for which the “EC50 (read off the curve)” value in experiment [3] is ~200 nM; in experiment [6], ~300 nM; in experiment [7] it was ~200 nM; in experiment [8] it was ~300 nM; in [9], ~300 nM. The binding result in [4] and in experiment [5] was “no binding” in each case. Further, the “EC50 (a concentration of protein causing a 50% cell death), HL60, MTT assay” value in experiment [10] turned out to be 130 nM. Besides, the “EC50 (a concentration of protein causing a 50% cell death), Jurkat, MTT assay” value in experiment [10] came to 200 nM.

B3: KD413 (designed binder)
chain: CAKAEGTGYDGHEHKTHKGIRCQNWYKSKPHYHGHQFRDGDKIKNKKNYCRNPDPRAGPWCFTHGNRNRYELCNQPRC
notes: Soluble monomer from Pichia pastoris; also called anti-DR4 Kringle domain variant KD413; not shown: C-terminal myc tag-6xHis tag of pPICZaA
B3: the “EC50 (read off the curve)” value is ~400 nM in experiment [11]; ~200 nM in experiment [12]; ~200 nM in [13]; ~200 nM in [14]; ~800 nM in experiment [15]; ~100 nM in experiment [16]. Moreover, the entries for the “EC50 (read off the curve)” value in [8] and in experiment [18] were ~100 nM and ~800 nM, respectively. Besides, the binding result in [5] and in [17] was “no binding” in each case. In experiment [10], the “EC50 (a concentration of protein causing a 50% cell death), Jurkat, MTT assay” value stood at 90 nM.

B4: KD413-KD506 hetero-dimer (designed binder, not shown: small tags and cut ends)
chain: CAKAEGTGYDGHEHKTHKGIRCQNWYKSKPHYHGHQFRDGDKIKNKKNYCRNPDPRAGPWCFTHGNRNRYELCNQPRCGGGGSGGGGSGGGGSGGGGSCPEDRGHEYDGDGDKTNRGHGCQYWDQNKPHHHGHRDKDKFKHRIKKNYCRNPDYETGPWCFTNRYRNKNELCHEPRC
Take B4: the “EC50 (read off the curve)” value in [12] was ~300 nM; in experiment [19], ~200 nM; in experiment [20], ~200 nM.

B5: anti-DR5 KD506 homo-dimer (designed binder)
chain: CPEDRGHEYDGDGDKTNRGHGCQYWDQNKPHHHGHRDKDKFKHRIKKNYCRNPDYETGPWCFTNRYRNKNELCHEPRCGGGGSGGGGSGGGGSGGGGSCPEDRGHEYDGDGDKTNRGHGCQYWDQNKPHHHGHRDKDKFKHRIKKNYCRNPDYETGPWCFTNRYRNKNELCHEPRC
As to B5, the “fold increase of affinity against the monomer” value in [1] is ~10 fold. The molecule further came in with an affinity value in experiment [2] of 31 nM.

B6: KD548 (designed binder)
chain: CHQTQGPKYDGNKDKTHKGHKCQSWTKNRPHHHGNKIENEDENRFQKNYCRNPDNKHEPWCFTHGHRDKHELCHEPRC
notes: Soluble monomer from Pichia pastoris; also called anti-DR5 Kringle domain variant KD548; not shown: C-terminal myc tag-6xHis tag of pPICZaA
Consider B6, for which the 50% effective concentration (EC50 (read off the curve)) in [21] is ~600 nM; in experiment [22], ~600 nM; in experiment [23], ~900 nM; in experiment [24], ~200 nM; in experiment [25], ~600 nM; in experiment [26], ~200 nM. In addition, the “EC50 (a concentration of protein causing a 50% cell death), HL60, MTT assay” value in [27] is 260 nM. Also, the binding result in experiment [28] is recorded as “binds”.
